From the supplement of paper PMC12764529 come the findings set out here.

± gives the half width of the 95% confidence interval. A value given as a limit tells only on which side of the number the result lay.

A short description of data set [1]: folding stability dG unfold (combined trypsin and chymotrypsin); higher = more stable. Summed up: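 How resistant each design was to proteolysis was captured as K50, inferred by Bayesian fitting of sequencing counts. Unfolding free energy was then derived relative to a sequence-predicted unfolded-state K50 and a shared folded-state K50, per protease or combined. Digestion used trypsin and chymotrypsin at 11 threefold-diluted concentrations plus a no-protease condition, on mini-proteins under 80 residues without cysteine in a PA-tagged cDNA display construct. Designs were kept only when AlphaFold2 dimer inter-PAE was above 15.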

Data set [2] in a line: folding stability dG unfold from chymotrypsin proteolysis; higher = more stable. On the procedure: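 Folding stability of de novo designed mini-proteins (<80 aa, no Cys; designed by TrROS, TrMRF, ProteinMPNN and the joint model) was measured by cDNA display proteolysis with trypsin and chymotrypsin. Each protease was used at 11 concentrations in a threefold dilution series plus a no-protease condition. K50 was inferred by Bayesian fitting of sequencing counts, and dG unfold was derived against a sequence-predicted unfolded-state K50 (Tsuboyama et al. method). Sequences shown include variable-length N-terminal GS-type padding (SAGGSAGG...) inside a display construct carrying a PA tag. Rows were kept only if the AF2 dimer inter-PAE was >15, to exclude likely homo-oligomers.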

“SAGGSAGGSAGMVTEESLEIEPGKGLIVRTVTDRRESGIVTETEKTPVSEAEREAIRKALSAGGSAGGSAGG [r11_47_JUSTAS]”: the “folding stability dG unfold” value is -0.201 ± 0.11 kcal/mol in data set [1] and 0.0861 ± 0.056 kcal/mol in data set [2].

Regarding “SAGGSAGGSAGNISSLPPTPITGSSLKRFVVKRPDGTEEEVTLEITYYPETGKEIISTIKSAGGSAGGSAGG [r11_1024_JUSTAS]”, the “folding stability dG unfold” value in data set [1] was -0.0512 ± 0.21 kcal/mol; in data set [2] it was 0.107 ± 0.31 kcal/mol.

In the case of “SAGGSAGGSAGPDVEVVIIPVDPETGEPLDALPIPIPSPEGGLVDEIVKAIPPDRYRVLASAGGSAGGSAGG [r17_339_TrMRF]”, the “folding stability dG unfold” value is < -1 kcal/mol in data set [1] and -0.336 ± 0.45 kcal/mol in data set [2].

As to “SAGGSAGGSAGPMYKLKAELNNKPFEVMINPDMPPDDQIYIRDPGEWIEFNIENMKVEPVSAGGSAGGSAGG [r11_247_TrROS]”, the “folding stability dG unfold” value was -0.0971 ± 0.14 kcal/mol in data set [1] and 0.298 ± 0.21 kcal/mol in data set [2].

As to “SAGGSAGGSAGPRRFMFQIPADEVKLEFPGGAKVTDVEEDPDGYRRVMIEIPPGADPELKSAGGSAGGSAGG [r17_48_TrROS]”, the results for the “folding stability dG unfold” value in data set [1] and in data set [2] were -0.129 ± 0.2 kcal/mol and 0.142 ± 0.32 kcal/mol, respectively.

For “SAGGSAGGSAGQPKPLPGGGEVKVEVYPPNNGKKKKFEIPPNEPDWIKELAKPGYSVHIESAGGSAGGSAGG [r11_1006_TrROS]”, the “folding stability dG unfold” value was -0.677 ± 0.43 kcal/mol in data set [1] and 0.0183 ± 0.089 kcal/mol in data set [2].

In the case of “SAGGSAGGSAGSMDSLPMPQVTPKVVELNVPPEEAEKLKKELGAKEIKFSPEGKLIIYLESAGGSAGGSAGG [r11_64_JUSTAS]”, the “folding stability dG unfold” value is -0.453 ± 0.2 kcal/mol in data set [1] and -0.353 ± 0.078 kcal/mol in data set [2].

In the case of “SAGGSAGGSAGSMVEVTYEPDPATGGSRIVTTTRFPDRNTVTVTELDPNAGVPLETVEVESAGGSAGGSAGG [r11_676_JUSTAS]”, the “folding stability dG unfold” value in data set [1] was -0.433 ± 0.089 kcal/mol; in data set [2] it was -0.16 ± 0.029 kcal/mol.

Consider “SAGGSAGGSAGTATLELTVGGKKATATVEPDPDSPAPVVTVKVGDKPVVLNPDGTWTPADSAGGSAGGSAGG [r11_732_TrMRF]”, for which the “folding stability dG unfold” value in data set [1] was < -1 kcal/mol; in data set [2] it was -0.908 ± 0.2 kcal/mol.

Turning to “SAGGSAGGSAGVKRIKDVRNPNGNKIRDVEVEEENDPNGNKYLTIKARHKNGNEQEHTLPSAGGSAGGSAGG [r11_810_TrROS]”, the “folding stability dG unfold” value was -0.18 ± 0.75 kcal/mol in data set [1] and 0.568 ± 0.25 kcal/mol in data set [2].

For the sequence “SAGGSAGGSAGVRIPPGYLVRIKFPGNGEREIPIDTPEIEIPGIENVTIEVYPLKKGEPISAGGSAGGSAGG [r11_43_TrROS]”, the “folding stability dG unfold” value stood at 0.167 ± 0.2 kcal/mol in data set [1] and 0.553 ± 0.19 kcal/mol in data set [2].

In the case of “SAGGSAGGSAGWNIEPKPEPERDPDGNPQPRMEIKIRVPPPTAEQAQEWAKENGLPVTVYSAGGSAGGSAGG [r17_114_TrROS]”, the “folding stability dG unfold” value in data set [1] was < -1 kcal/mol; in data set [2] it was -0.0462 ± 0.17 kcal/mol.

In the case of “SAGGSAGGSAILRIKLEHPKSGKPMTWVIPPEMNIEQIADMLMEQHPNAEIKDIEWVPPNQISAGGSAGGSA [r18_242_TrROS]”, the figures for the “folding stability dG unfold” value in data set [1] and in data set [2] were -0.0546 ± 0.097 kcal/mol and 0.3 ± 0.12 kcal/mol, respectively.

For “SAGGSAGGSAKRTIFIPAEDLQKNPDNAEELAQTIAEEFNDNGKEIKIEQHPDGGVVIELKSAGGSAGGSAG [r3_75_TrROS]”, the “folding stability dG unfold” value in data set [1] was < -1 kcal/mol; in data set [2], -0.3 ± 0.1 kcal/mol.

As for “SAGGSAGGSAKSALDQMKGQKFTFYHPGGEQPVPITIEPDKDDNFVVKFPNKKPYPMPIDDISAGGSAGGSA [r18_169_TrROS]”, the “folding stability dG unfold” value in data set [1] is < -1 kcal/mol; in data set [2] it was -1.29 ± 0.81 kcal/mol.

On to “SAGGSAGGSAMKLLETKVSRSLVPETGVVVTPVTTTTLGPGGKREVIEETEVRVLPPDAPPPSAGGSAGGSA [r18_95_JUSTAS]”, for which the “folding stability dG unfold” value in data set [1] is < -1 kcal/mol; in data set [2], -0.625 ± 0.19 kcal/mol.

As for “SAGGSAGGSAMLTLRFELPDGSERELRLPGVTPEEAAALAAELARREGVARVEVYPPGVERSAGGSAGGSAG [r3_160_JUSTAS]”, the “folding stability dG unfold” value in data set [1] is -0.823 ± 0.44 kcal/mol; in data set [2], 0.532 ± 0.26 kcal/mol.

“SAGGSAGGSAMPERRAAEAAAAPPPVPKVVITSPGSEEEARRIEEELRAAPGVEEVTVTVVPRLSAGGSAGG [r6_285_JUSTAS]”: the “folding stability dG unfold” value in data set [1] came out at 0.0774 ± 0.16 kcal/mol; in data set [2], 0.804 ± 0.045 kcal/mol.

As to “SAGGSAGGSAMPLGVTTSTSTSLLPSNSRLVTETITTPGTTSTTTTLLTPPPGEVLETTTTSSAGGSAGGSA [r18_459_JUSTAS]”, the “folding stability dG unfold” value in data set [1] was 0.526 ± 0.09 kcal/mol; in data set [2] it was 0.997 ± 0.027 kcal/mol.

With “SAGGSAGGSAPFENLPEDAKEVEITFDPSLSEEVRKALAEELKPRIEAQGIKYKFKIVPKSNLSAGGSAGGS [r12_456_JUSTAS]”, the “folding stability dG unfold” value was < -1 kcal/mol in data set [1] and -0.448 ± 0.59 kcal/mol in data set [2].

“SAGGSAGGSAPGKHKTIEINGPGDVEEAVDYAKDEMPPGKPIHIRFNDEPITIPAEDAKKISAGGSAGGSAG [r3_50_TrROS]”: the “folding stability dG unfold” value in data set [1] is -0.0642 ± 0.22 kcal/mol; in data set [2], 0.445 ± 0.047 kcal/mol.
